Assay [1] concerns the target T1, recombinant soluble DR5 protein (rsDR5) (human, UniProt O14763 56-183).
T1 construct: Expressed in E. coli from pET21b(+)-sDR5 and purified on Ni-NTA; also called DR5 extracellular domain protein
Description: SPR, BIAcore 3000; antibody captured by anti-human IgG (Fc) on CM5 chip, rsDR5 0.3-85 nM as analyte. In general terms: In SPR one partner is held on a chip, and binding of the other changes the refractive index at the surface.
Description: (§1) For the direct coupling of anti-human IgG (Fc), CM5 sensor chips and the reference flow cells were coated with ˜1500-2000 RU in HBS-EP+(10 mM HEPES buffer, pH 7.4, 0.15 M NaCl, 3 mM EDTA, and 0.05% Surfactant P20). […] For regeneration, 3 M MgCl₂ was loaded at flow rate of 10 μl/min for 30 sec. All sensograms were globally fitted using BIAevaluation software 3.1 (Biacore) to determine the dissociation constant KD (KD=koff/kₒₙ).

Assay [2] addresses T1, recombinant soluble DR5 protein (rsDR5). Kind of assay: SPR, BIAcore 3000; conjugate captured by anti-human IgG (Fc) on CM5 chip, rsDR5 0.3-85 nM as analyte.
Description: as §1

B1: hB273 antibody (humanized B273) (antibody, human IgG1, kappa, V domains shown)
VH: EVQLVQSGAEVKKPGASVKVSCKASGYSFIGYFMNWMKQSPGMSLEWIGRFNPYNEDTFYNQKFKGKATLTVDKSTSTAYMELSSLRSEDTAVYFCARSAYYFDSGGYFDYWGQGTLVTVSS
VL: DIVMTQSPLSLPVTPGEPASISCRSSQSLVHSNKNTYLHWYLQKPGQSPQLLIYKVSNRFSGVPDRFSGSGSGTDFTLKISRVEAEDVGVYYCSQSTHVPWTFGPGTKVEIKR
notes: Anti-DR5 antibody
B1: in assay [1], the dissociation constant (Kd) is 2.6 nM and the association rate constant (kon) amounted to 2.6e+06 M⁻¹ s⁻¹.

B2: hB273-vc-MMAE (antibody drug conjugate of hB273 conjugated with mc-vc-MMAE) (antibody, V domains shown)
VH: EVQLVQSGAEVKKPGASVKVSCKASGYSFIGYFMNWMKQSPGMSLEWIGRFNPYNEDTFYNQKFKGKATLTVDKSTSTAYMELSSLRSEDTAVYFCARSAYYFDSGGYFDYWGQGTLVTVSS
VL: DIVMTQSPLSLPVTPGEPASISCRSSQSLVHSNKNTYLHWYLQKPGQSPQLLIYKVSNRFSGVPDRFSGSGSGTDFTLKISRVEAEDVGVYYCSQSTHVPWTFGPGTKVEIKR
modifications: mc-vc-MMAE drug-linker on cysteine thiols freed by partial TCEP reduction; average about 3.5 to 4.5 drug-linker units per antibody; positions not given
notes: Antibody drug conjugate of hB273; also called hB273-veMMAE
Turning to B2, the Kd in assay [2] was determined as 3.2 nM.

In general, Kd refers to the concentration at which binding is half-saturated. In general, kon refers to the second-order rate constant of association.

For the origin of these results see patent US20130280282A1, “DR5 LIGAND DRUG CONJUGATES” (Daiichi Sankyo Co., Ltd., priority 2012, published 2013).
